Test results published in article PMC3701619, “High Levels of DegU-P Activate an Esat-6-Like Secretion System in Bacillus subtilis” (PLoS ONE, 2013).

Columns and labels:
[1] = target: the molecule itself; assay: cross-linking; pure YukE-His6 (0.4 to 10.3 uM with 0.25 mM BS3; 20 to 84 uM with 1 mM BS3) in YukE buffer (50 mM HEPES-Na pH 7.0, 300 mM NaCl), 30 min at room temperature; 15% SDS-PAGE, Coomassie staining or Western blot with anti-YukE-His6
[2] = target: the molecule itself; assay: cross-linking; concentrated, dialysed (25 mM HEPES pH 7, 250 mM NaCl) cell-free supernatant of a W654 culture at T2, 2.5 ug total protein, 1 mM or 5 mM BS3, 30 min at room temperature; Western blot with anti-YukE-His6

| Protein | stoichiometry N [1] | stoichiometry N [2] |
| --- | --- | --- |
| YukE-His6 (natural protein, B. subtilis, UniProt C0SP85 1-97, looked up, YukE, WXG100 protein of Bacillus subtilis; YukE-His6 is 12.17 kDa; The vector may add linker residues between YukE and the His6 tag; The vector is named pIVEX3.2d once and pIVEX2.3d once; also called recombinant YukE; YukE C-terminally tagged with a hexahistidine tail; not shown: His6, C-terminal, kept) MAGLIRVTPEELRAMAKQYGVESQEVLNQVDRLNRMISDLKSMWEGASSEAFADQYEQLKPSFIKMSDLLQDVNQQLDQTANTLESTDQDIANQIRG | 2 |  |
| native YukE (natural protein, UniProt C0SP85 1-97, looked up, YukE, WXG100 protein of Bacillus subtilis, as secreted to the culture medium; predicted mass of the native dimer ~22 kDa; the protein here is from an ATCC 6051 derivative; also called YukE present in a concentrated culture supernatant of strain W654) MAGLIRVTPEELRAMAKQYGVESQEVLNQVDRLNRMISDLKSMWEGASSEAFADQYEQLKPSFIKMSDLLQDVNQQLDQTANTLESTDQDIANQIRG |  | 2 |
